Source: patent publication WO2005003174A1 (dated 2005)

Molecular target: T1, fusion protein consisting of soluble CD64 linked to the Fc portion of human IgM (human, UniProt P12314 16-292; P01871 106-453, limits assumed)
T1 construct: domain: soluble CD64;domain: Fc portion; Used as a supernatant and detected with alkaline phosphatase labelled goat anti-human IgM; also called soluble CD64-IgM fusion protein
Test: bispecific ELISA: PsaA coated, detection with soluble CD64-IgM fusion and anti-human IgM

T1 sequence (P12314 other isoform, or with tags, fused parts or gaps limits assumed): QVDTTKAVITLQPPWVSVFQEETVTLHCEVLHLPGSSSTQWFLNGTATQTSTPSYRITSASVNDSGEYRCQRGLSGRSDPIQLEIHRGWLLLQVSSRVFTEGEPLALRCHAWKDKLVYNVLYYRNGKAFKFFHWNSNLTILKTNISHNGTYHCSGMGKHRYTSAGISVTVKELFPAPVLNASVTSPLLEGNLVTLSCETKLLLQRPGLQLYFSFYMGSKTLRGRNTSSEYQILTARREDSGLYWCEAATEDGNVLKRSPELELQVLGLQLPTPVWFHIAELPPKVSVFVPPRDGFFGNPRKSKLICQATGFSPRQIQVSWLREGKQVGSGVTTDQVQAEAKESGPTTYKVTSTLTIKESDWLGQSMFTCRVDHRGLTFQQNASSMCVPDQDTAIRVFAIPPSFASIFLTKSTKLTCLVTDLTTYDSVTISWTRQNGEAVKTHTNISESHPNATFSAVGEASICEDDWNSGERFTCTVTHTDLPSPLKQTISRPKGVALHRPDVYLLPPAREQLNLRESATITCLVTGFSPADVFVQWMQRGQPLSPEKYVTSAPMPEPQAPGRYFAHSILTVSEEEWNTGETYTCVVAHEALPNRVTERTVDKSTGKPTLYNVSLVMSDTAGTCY

B1: F(ab')2 fragment of the anti-PsaA Ab 5-9A7 (antibody, V domains shown)
VH: EVQLVESGGGLVQPGGSLRLSCAASGFTFSSFWMSWVRQAPGKGLEWVANIKQDGSEKFYVDSVKGRFTISRDNAKNSLYLQMNSLRAEDTAVYYCARDRITMVRPYYYFYNGLDVWGQGTTVTVSS
VL: EIVLTQSPATLSLSPGERATLSCRASQSVSSYLAWYQQKPGQAPRLLIYDASNRATGIPARFSGSGSGTDFTLTISSLEPEDFAVYYCQQRSNWPPFTFGPGTKVDIK
notes: F(ab')2 fragment made by pepsin digestion of the human antibody 5-9A7; also called anti-PsaA F(ab')2
  binding result: no binding
